Test results from patent US20230322958A1 (Genentech, published 2023).
One block for each binder: values may come before it.

How the values were obtained:
[1] = biological target: T1, human Notch2 on U-87 MG cells (human, UniProt Q04721 26-2471); assay: cell-based or functional assay
huNotch2-EGF6-10 = biological target: T2, huNotch2-EGF6-10 (human, UniProt Q04721 219-418); assay: SPR BIAcore T200, antibody captured on protein A, 37 C
T2 construct: also called human Notch2 EGF6-10
T2 sequence: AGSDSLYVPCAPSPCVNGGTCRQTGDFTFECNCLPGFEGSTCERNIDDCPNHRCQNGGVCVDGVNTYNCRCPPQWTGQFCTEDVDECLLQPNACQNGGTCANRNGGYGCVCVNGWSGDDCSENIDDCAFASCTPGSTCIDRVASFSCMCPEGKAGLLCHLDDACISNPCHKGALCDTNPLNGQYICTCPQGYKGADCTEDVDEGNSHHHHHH
Experimental: The binding affinities of the antibodies was determined by BIAcore™ T200 machine. Rabbit antibodies were expressed as chimeric antibodies with rabbit variable domains and human constant domains. Rat antibodies were expressed as chimeric antibodies with rat variable domains and human constant regions. Humanized antibodies were expressed in the human IgG1 backbone. For kinetics measurements, antibodies were captured on research grade protein A chip (GE Healthcare) to achieve approximately 300 RU. Ten-fold serial dilutions of huNotch2-EGF6-10 were injected in HBS-P buffer with additional 3 mM CaCl₂ at 37° C. with a flow rate of 100 μL/min. Association rates (ka) and dissociation rates (kd) were calculated using a 1:1 Langmuir binding model (BIAcore™ T200 Evaluation Software version 2.0). The equilibrium dissociation constant (KD) was calculated as the ratio kd/ka.

[2] = biological target: T1, human Notch2 on U-87 MG cells; assay: cell-based or functional assay; remark: listed apart in the source
[3] = biological target: T1, human Notch2 on U-87 MG cells; assay: KinExA equilibrium whole-cell analysis on Notch2-expressing U-87 cells
Experimental: After incubation, the cells were centrifuged and the supernatants, containing the free fraction of antibody or Fab construct, were removed without disturbing the cell pellets and transferred onto a KinExA 3200 instrument with autosampler (Sapidyne Instruments Inc). Each supernatant was flowed over a solid phase composed of polystyrene beads (#440176, Sapidyne Instruments Inc) coated with biotinylated goat anti-human Immunoglobulin G (IgG) heavy+light (H+L) (#109-065-003, Jackson ImmunoResearch Laboratories Inc.) or biotinylated Notch2 extracellular domain to capture the free antibody or Fab construct. […] The fluorescent signals were recorded and converted to a voltage signal that is directly proportional to the amount of free antibody or Fab construct in the equilibrated sample. Using the built in Equilibrium Whole Cell analysis method, the KinExA Pro software performed a least squares analysis on the measured data to fit optimal solutions for the KD and the activity of the free antibody or Fab construct to a curve representative of a 1:1 reversible bi-molecular interaction. […] A N-curve analysis was applied for the testing of the two concentrations of antibody or Fab construct to determine the KD on Notch2-expressing U-87 cells.
The binding kinetics were determined using a similar assay format as the one used for the equilibrium analysis, with the exception that measurements were collected “pre-equilibrium” and the binding signals were plotted as a function of time. For the KinExA direct method, anti-Notch2 antibody and Fab formats were incubated with Notch2-expressing U-87 cells at a fixed concentration (Table 12) and aliquots of the cell binding solution were collected at different time points to determine the fraction of free antibody or Fab format. The KinExA Pro software was then used to determine the association rate constant (Kₒₙ).

T1 sequence (Q04721 26-2471): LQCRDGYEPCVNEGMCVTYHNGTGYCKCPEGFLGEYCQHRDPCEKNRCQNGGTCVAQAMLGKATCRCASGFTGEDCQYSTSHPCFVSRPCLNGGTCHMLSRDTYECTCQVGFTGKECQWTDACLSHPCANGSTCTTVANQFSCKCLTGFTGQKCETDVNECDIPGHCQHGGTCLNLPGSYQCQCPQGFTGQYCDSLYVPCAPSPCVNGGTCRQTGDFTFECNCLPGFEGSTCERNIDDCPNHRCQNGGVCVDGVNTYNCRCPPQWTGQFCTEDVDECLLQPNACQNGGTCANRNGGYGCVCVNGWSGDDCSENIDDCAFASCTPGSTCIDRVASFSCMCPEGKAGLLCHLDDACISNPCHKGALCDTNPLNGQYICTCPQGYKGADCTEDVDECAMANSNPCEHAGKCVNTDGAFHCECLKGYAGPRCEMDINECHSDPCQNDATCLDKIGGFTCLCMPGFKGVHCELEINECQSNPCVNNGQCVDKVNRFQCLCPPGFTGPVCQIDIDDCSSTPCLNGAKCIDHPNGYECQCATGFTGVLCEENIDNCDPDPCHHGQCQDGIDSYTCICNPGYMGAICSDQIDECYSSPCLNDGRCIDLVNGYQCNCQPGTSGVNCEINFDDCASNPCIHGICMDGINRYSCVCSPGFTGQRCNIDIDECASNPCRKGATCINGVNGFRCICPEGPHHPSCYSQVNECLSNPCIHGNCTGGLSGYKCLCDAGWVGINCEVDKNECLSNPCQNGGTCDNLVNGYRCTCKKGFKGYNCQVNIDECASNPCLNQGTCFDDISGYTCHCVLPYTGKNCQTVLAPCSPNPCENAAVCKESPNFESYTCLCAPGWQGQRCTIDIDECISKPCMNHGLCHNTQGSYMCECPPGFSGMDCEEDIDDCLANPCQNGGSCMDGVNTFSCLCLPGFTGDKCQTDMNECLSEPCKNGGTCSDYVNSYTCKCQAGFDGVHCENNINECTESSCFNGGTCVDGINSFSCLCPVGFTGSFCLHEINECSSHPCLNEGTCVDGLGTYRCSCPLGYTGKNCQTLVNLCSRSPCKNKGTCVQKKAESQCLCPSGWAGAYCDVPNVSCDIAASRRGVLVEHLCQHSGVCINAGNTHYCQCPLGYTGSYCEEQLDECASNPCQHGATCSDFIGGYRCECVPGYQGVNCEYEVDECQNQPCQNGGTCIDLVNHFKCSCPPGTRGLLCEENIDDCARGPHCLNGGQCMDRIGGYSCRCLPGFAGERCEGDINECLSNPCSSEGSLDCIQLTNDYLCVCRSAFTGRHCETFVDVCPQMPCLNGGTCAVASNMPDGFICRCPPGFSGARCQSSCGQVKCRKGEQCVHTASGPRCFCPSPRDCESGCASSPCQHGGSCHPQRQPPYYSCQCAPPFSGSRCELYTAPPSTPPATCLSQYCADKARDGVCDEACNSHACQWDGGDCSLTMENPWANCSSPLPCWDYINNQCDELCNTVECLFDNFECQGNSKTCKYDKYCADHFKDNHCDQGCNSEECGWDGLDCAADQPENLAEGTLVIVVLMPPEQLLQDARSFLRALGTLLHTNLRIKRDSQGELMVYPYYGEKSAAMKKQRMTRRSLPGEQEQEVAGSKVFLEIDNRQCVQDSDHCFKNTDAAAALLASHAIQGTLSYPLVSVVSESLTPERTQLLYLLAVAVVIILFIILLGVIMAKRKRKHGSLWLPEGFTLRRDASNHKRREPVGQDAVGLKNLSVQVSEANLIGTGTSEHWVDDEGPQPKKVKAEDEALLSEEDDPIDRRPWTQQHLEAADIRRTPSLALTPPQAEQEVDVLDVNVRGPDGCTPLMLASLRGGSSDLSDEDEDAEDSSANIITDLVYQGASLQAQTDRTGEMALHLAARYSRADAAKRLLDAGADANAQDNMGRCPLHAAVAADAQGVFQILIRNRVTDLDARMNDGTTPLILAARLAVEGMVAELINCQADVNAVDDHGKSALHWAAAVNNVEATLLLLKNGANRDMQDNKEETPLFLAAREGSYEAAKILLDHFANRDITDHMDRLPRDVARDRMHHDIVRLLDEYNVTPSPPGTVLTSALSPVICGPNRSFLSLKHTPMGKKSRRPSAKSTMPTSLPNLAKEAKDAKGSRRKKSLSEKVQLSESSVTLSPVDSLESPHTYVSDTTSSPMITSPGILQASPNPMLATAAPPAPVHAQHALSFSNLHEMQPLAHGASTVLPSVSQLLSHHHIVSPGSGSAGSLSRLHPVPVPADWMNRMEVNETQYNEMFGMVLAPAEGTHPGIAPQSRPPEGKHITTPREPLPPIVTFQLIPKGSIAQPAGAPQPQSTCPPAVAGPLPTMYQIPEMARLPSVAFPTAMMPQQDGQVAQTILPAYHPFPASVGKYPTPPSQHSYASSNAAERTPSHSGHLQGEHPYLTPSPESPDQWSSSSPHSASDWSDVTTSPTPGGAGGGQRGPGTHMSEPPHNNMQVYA

Jagged1 IC50 [1]: 3.53 nM
B1: rb.2338 (rabbit/human chimeric anti-Notch2 antibody 2338) (antibody, V domains shown)
VH: QSLEESGGDLVKPGASLTLTCTASGFSFSSGYDMCWVRQAPGKGLEWIACIYAGSEGFTYYASWAKGRFTISKSSSTTVTLQMTSLTVADTATYFCARWTDSDGSNLWGPGTLVTVSS
VL: DVVMTQTPASVEAAVGGTVTIKCQASQSISSYLAWYQQKPGQPPKLLIYRASKLASGVPSRFSGRGSGTQFTLTISDLECADAATYYCQSNSYGNNWVGGFGGGTKVEIK

Jagged1 IC50 [1]: 12.5 nM
Kd (huNotch2-EGF6-10): 5.21 nM
koff (huNotch2-EGF6-10): 0.000943 s⁻¹
kon (huNotch2-EGF6-10): 181000 M⁻¹ s⁻¹
B2: rat.1B2 (rat/human chimeric anti-Notch2 antibody 1B2) (antibody, V domains shown)
VH: EVKLVDYGGGLVQPGASLRLSCEVSGFTFSDFYMEWIRQAPGKGLEWIAASRNKANNFSIVYSASVKDRFTISRDTYKSILYLQMSTLKPEDTAVYYCSRDSGRWGLDAWGQGTSVIVSS
VL: DIQMTQSPASLSASLGETVTIQCQTSEDIYSGLAWYHQKPGKSPQLLIYGASRLQDGVPSRFTGSGSGTQYSLKISSMQTEDEGVYFCQQGFKYPLTFGSGTKLEIK
notes: also called 1B2 Chimeric; chimeric 1B2

Jagged1 IC50 [1]: 1.03 nM
B3: rb.2430 (rabbit/human chimeric anti-Notch2 antibody 2430) (antibody, V domains shown)
VH: QSVEESGGRLVTPGTPLTLTCTVSGFSLSSYDMSWVRQAPGKGLEWIGIIQAGSNTLFYASWAKGRFTISKTSTTVDLKITSPTTEDTATYFCARGGVIFIIGHFNLWGPGTLVTVSS
VL: AQVLTQTASSVSAAVGGTVTINCQASQSVVNNRLAWYQQKPGQPPKLLMYGASTLESGVSSRFKGSGSGTQFTLTISGVQCDDAATYYCQGEFLCSSGDCVAFGGGTKVEIK

DLL Inhibition (IC50) [2]: > 1000 nM
B4: 1B2.v104.huFab.LC_K149C.dPEG11_dimer (other)
heavy: EVQLVESGGGLVQPGGSLKLSCAVSGFTFSDFYMEWVRQASGKGLEWVAAQRNKANDFSIVYSASVKDRFTISRDDSKSTLYLQMNSLKTEDTAVYYCSRDGGKLALDAWGQGTLVTVSSASTKGPSVFPLAPSSKSTSGGTAALGCLVKDYFPEPVTVSWNSGALTSGVHTFPAVLQSSGLYSLSSVVTVPSSSLGTQTYICNVNHKPSNTKVDKKVEPKSCD
light: DIQMTQSPSSVSASVGDRVTITCQTSEDIYSGLAWYQQKPGKSPKLLIYGASRLQDGVPSRFSGSGSGTDYTLTISSLQPEDFATYYCQQGFKYPLTFGGGTKVEIKRTVAAPSVFIFPPSDEQLKSGTASVVCLLNNFYPREAKVQWCVDNALQSGNSQESVTEQDSKDSTYSLSSTLTLSKADYEKHKVYACEVTHQGLSSPVTKSFNRGEC
modifications: engineered Cys (K149C) joined through maleimide to Bis-Mal-PEG11

DLL Inhibition (IC50) [2]: > 500 nM
Jag1 Inhibition (IC50) [2]: 0.27 nM
B5: 1B2.v104.huFab.LC_K149C.PEG_4-arm-Mal-10kD (other)
heavy: EVQLVESGGGLVQPGGSLKLSCAVSGFTFSDFYMEWVRQASGKGLEWVAAQRNKANDFSIVYSASVKDRFTISRDDSKSTLYLQMNSLKTEDTAVYYCSRDGGKLALDAWGQGTLVTVSSASTKGPSVFPLAPSSKSTSGGTAALGCLVKDYFPEPVTVSWNSGALTSGVHTFPAVLQSSGLYSLSSVVTVPSSSLGTQTYICNVNHKPSNTKVDKKVEPKSCD
light: DIQMTQSPSSVSASVGDRVTITCQTSEDIYSGLAWYQQKPGKSPKLLIYGASRLQDGVPSRFSGSGSGTDYTLTISSLQPEDFATYYCQQGFKYPLTFGGGTKVEIKRTVAAPSVFIFPPSDEQLKSGTASVVCLLNNFYPREAKVQWCVDNALQSGNSQESVTEQDSKDSTYSLSSTLTLSKADYEKHKVYACEVTHQGLSSPVTKSFNRGEC
modifications: engineered Cys (K149C) joined through maleimide to a 4-arm maleimide PEG linker (10 kD)

DLL Inhibition (IC50) [2]: > 400 nM
Jag1 Inhibition (IC50) [2]: 0.21 nM
B6: 1B2.v104.huFab.LC_K149C.PEG_6-arm-Mal-6kD (other)
heavy: EVQLVESGGGLVQPGGSLKLSCAVSGFTFSDFYMEWVRQASGKGLEWVAAQRNKANDFSIVYSASVKDRFTISRDDSKSTLYLQMNSLKTEDTAVYYCSRDGGKLALDAWGQGTLVTVSSASTKGPSVFPLAPSSKSTSGGTAALGCLVKDYFPEPVTVSWNSGALTSGVHTFPAVLQSSGLYSLSSVVTVPSSSLGTQTYICNVNHKPSNTKVDKKVEPKSCD
light: DIQMTQSPSSVSASVGDRVTITCQTSEDIYSGLAWYQQKPGKSPKLLIYGASRLQDGVPSRFSGSGSGTDYTLTISSLQPEDFATYYCQQGFKYPLTFGGGTKVEIKRTVAAPSVFIFPPSDEQLKSGTASVVCLLNNFYPREAKVQWCVDNALQSGNSQESVTEQDSKDSTYSLSSTLTLSKADYEKHKVYACEVTHQGLSSPVTKSFNRGEC
modifications: engineered Cys (K149C) joined through maleimide to 6ARM(DP)-MAL-6000

DLL Inhibition (IC50) [2]: > 500 nM
Jag1 Inhibition (IC50) [2]: 0.35 nM
B7: 1B2.v104.huFab.LC_K149C.dPEG_4-arm-Mal-3kD (other)
heavy: EVQLVESGGGLVQPGGSLKLSCAVSGFTFSDFYMEWVRQASGKGLEWVAAQRNKANDFSIVYSASVKDRFTISRDDSKSTLYLQMNSLKTEDTAVYYCSRDGGKLALDAWGQGTLVTVSSASTKGPSVFPLAPSSKSTSGGTAALGCLVKDYFPEPVTVSWNSGALTSGVHTFPAVLQSSGLYSLSSVVTVPSSSLGTQTYICNVNHKPSNTKVDKKVEPKSCD
light: DIQMTQSPSSVSASVGDRVTITCQTSEDIYSGLAWYQQKPGKSPKLLIYGASRLQDGVPSRFSGSGSGTDYTLTISSLQPEDFATYYCQQGFKYPLTFGGGTKVEIKRTVAAPSVFIFPPSDEQLKSGTASVVCLLNNFYPREAKVQWCVDNALQSGNSQESVTEQDSKDSTYSLSSTLTLSKADYEKHKVYACEVTHQGLSSPVTKSFNRGEC
modifications: engineered Cys (K149C) joined through maleimide to a 4-arm maleimide dPEG linker (3 kD)

DLL Inhibition (IC50) [2]: > 1000 nM
B8: 1B2.v104.huFab.LC_K149C.dPEG19_dimer (other)
heavy: EVQLVESGGGLVQPGGSLKLSCAVSGFTFSDFYMEWVRQASGKGLEWVAAQRNKANDFSIVYSASVKDRFTISRDDSKSTLYLQMNSLKTEDTAVYYCSRDGGKLALDAWGQGTLVTVSSASTKGPSVFPLAPSSKSTSGGTAALGCLVKDYFPEPVTVSWNSGALTSGVHTFPAVLQSSGLYSLSSVVTVPSSSLGTQTYICNVNHKPSNTKVDKKVEPKSCD
light: DIQMTQSPSSVSASVGDRVTITCQTSEDIYSGLAWYQQKPGKSPKLLIYGASRLQDGVPSRFSGSGSGTDYTLTISSLQPEDFATYYCQQGFKYPLTFGGGTKVEIKRTVAAPSVFIFPPSDEQLKSGTASVVCLLNNFYPREAKVQWCVDNALQSGNSQESVTEQDSKDSTYSLSSTLTLSKADYEKHKVYACEVTHQGLSSPVTKSFNRGEC
modifications: engineered Cys (K149C) joined through maleimide to Bis-Mal-PEG19

Jagged1 IC50 [1]: 0.667 nM
B9: rb.2621 (rabbit/human chimeric anti-Notch2 antibody 2621) (antibody, V domains shown)
VH: QSLEESGGGLVQPGASLTLTCTASGFSFSSGYDMCWVRQAPGKGLEWIACIVTVSGNTYYASWAKGRFTISKTSSTTVTLQMTSLTAADTATYFCARDGGFTDTWYFHLWGPGTLVTVSS
VL: AYDMTQTPASVEVAVGGTVTIKCQASESIGSYLAWYQQKPGQPPKLLIYRASTLASGVPSRFKGSGSGTEFTLTISGVQCDDAATYYCQQTYSGAGVDNLFGGGTKVEIK

Jagged1 IC50 [1]: 7.9 nM
Kd (huNotch2-EGF6-10): 5.15 nM
koff (huNotch2-EGF6-10): 0.00116 s⁻¹
kon (huNotch2-EGF6-10): 226000 M⁻¹ s⁻¹
B10: hu1B2.L1H1.DFS (antibody, V domains shown)
VH: EVQLVESGGGLVQPGGSLKLSCAVSGFTFSDFYMEWIRQASGKGLEWIAASRNKANDFSIVYSASVKDRFTISRDTSKSTLYLQMNSLKTEDTAVYYCSRDSGRWGLDAWGQGTLVTVSS
VL: DIQMTQSPSSVSASVGDRVTITCQTSEDIYSGLAWYQQKPGKSPKLLIYGASRLQDGVPSRFSGSGSGTDYTLTISSLQPEDFATYFCQQGFKYPLTFGGGTKVEIK
notes: Human IgG1 backbone; also called hu1B2.v1.DFS

Kd [3]: 1.98 nM
B11: 1B2.v104.huFab.LC_K149C.MMTS_capped (Fab, V domains shown)
VH: EVQLVESGGGLVQPGGSLKLSCAVSGFTFSDFYMEWVRQASGKGLEWVAAQRNKANDFSIVYSASVKDRFTISRDDSKSTLYLQMNSLKTEDTAVYYCSRDGGKLALDAWGQGTLVTVSS
VL: DIQMTQSPSSVSASVGDRVTITCQTSEDIYSGLAWYQQKPGKSPKLLIYGASRLQDGVPSRFSGSGSGTDYTLTISSLQPEDFATYYCQQGFKYPLTFGGGTKVEIKR
modifications: engineered Cys (K149C) capped with MMTS
notes: Monovalent Fab used in the KinExA experiments; also called Monovalent Fab

Kd [3]: 0.0353 nM
B12: 1B2.v104.huIgG1.N297G (antibody, V domains shown)
VH: EVQLVESGGGLVQPGGSLKLSCAVSGFTFSDFYMEWVRQASGKGLEWVAAQRNKANDFSIVYSASVKDRFTISRDDSKSTLYLQMNSLKTEDTAVYYCSRDGGKLALDAWGQGTLVTVSS
VL: DIQMTQSPSSVSASVGDRVTITCQTSEDIYSGLAWYQQKPGKSPKLLIYGASRLQDGVPSRFSGSGSGTDYTLTISSLQPEDFATYYCQQGFKYPLTFGGGTKVEIK
notes: Human IgG1 with N297G; also called Bivalent IgG antibody; 1B2.v104 IgG

Kd [3]: 0.195 nM
B13: 1B2.v104.Fab-huIgG1.N297G (antibody, V domains shown)
VH: EVQLVESGGGLVQPGGSLKLSCAVSGFTFSDFYMEWVRQASGKGLEWVAAQRNKANDFSIVYSASVKDRFTISRDDSKSTLYLQMNSLKTEDTAVYYCSRDGGKLALDAWGQGTLVTVSS
VL: DIQMTQSPSSVSASVGDRVTITCQTSEDIYSGLAWYQQKPGKSPKLLIYGASRLQDGVPSRFSGSGSGTDYTLTISSLQPEDFATYYCQQGFKYPLTFGGGTKVEIK
notes: Tetravalent Fab-IgG format, human IgG1 N297G; also called Tetravalent Fab-IgG; 1B2.v104 Fab-IgG
